Experimental data reported in patent US20250043302A1, “MUTATED HYDROXYPHENYLPYRUVATE DIOXYGENASE POLYPEPTIDE, AND CODING GENE AND USE THEREOF” (BEIJING DABEINONG BIOTECHNOLOGY CO., LTD., priority 2021, published 2025).
Substitutions are numbered along the chain they refer to. Names and notes keep the numbering of the source.

B1: AsHPPDm-F372G-02: nucleotide sequence encoding Avena sativa HPPD with F372G; vector DBN11774 (nucleic acid)
DNA: ATGCCACCTACTCCAGCTACAGCTACTGGTGCTGCTGCTGCTGCCGTTACTCCTGAGCACGCTGCCAGGTCATTCCCCAGGGTGGTTCGCGTGAACCCCAGATCTGATAGGTTCCCAGTTCTGAGCTTCCACCATGTTGAGCTGTGGTGCGCTGATGCTGCTTCTGCTGCTGGCAGGTTCTCTTTCGCTCTTGGTGCTCCACTCGCTGCTAGATCTGATCTGTCTACAGGAAATAGCGCTCATGCCTCACTCCTGCTTCGCTCAGGTGCTTTGGCCTTCCTCTTCACCGCTCCATATGCTCCCCCACCTCAGGAGGCTGCTACTGCTGCTGCTACAGCCTCCATTCCAAGCTTCTCAGCTGATGCCGCTAGAACCTTCGCTGCTGCTCATGGACTTGCCGTGAGGTCTGTTGGTGTTCGCGTGGCTGATGCTGCTGAGGCTTTCAGAGTTTCCGTTGCCGGCGGAGCTAGGCCAGCTTTCGCTCCTGCTGATTTGGGACATGGTTTCGGCCTGGCTGAGGTTGAGCTTTACGGTGACGTGGTTCTCCGCTTCGTGTCTTACCCAGATGAGACTGACCTGCCTTTCCTTCCCGGCTTCGAGAGAGTTTCCTCTCCTGGTGCCGTGGATTACGGCCTGACAAGGTTCGACCACGTGGTTGGAAACGTTCCCGAGATGGCTCCAGTGATCGATTACATGAAGGGCTTCCTTGGATTCCATGAGTTCGCCGAGTTCACTGCTGAGGACGTGGGAACCACTGAGTCCGGTTTGAACTCTGTGGTTCTCGCCAACAATTCTGAGGCTGTTTTGCTCCCTCTGAATGAGCCTGTGCATGGAACCAAGAGGAGAAGCCAGATTCAAACTTACCTGGAGTACCACGGTGGCCCTGGAGTTCAGCATATCGCCCTTGCTTCTAATGATGTGTTGCGCACACTCAGAGAGATGCGCGCCAGAACCCCCATGGGAGGTTTCGAGTTCATGGCCCCACCACAGGCTAAGTACTACGAGGGCGTTAGAAGGATTGCTGGAGACGTGTTGAGCGAGGAGCAGATCAAGGAGTGCCAAGAGCTGGGTGTTCTTGTGGATAGGGATGACCAGGGCGTTCTGCTTCAAATTGGTACTAAGCCAGTGGGCGACCGCCCTACATTCTTCCTTGAGATGATTCAAAGAATCGGCTGCATGGAGAAGGATGAGGTTGGACAGGAGTACCAAAAGGGCGGATGCGGTGGCTTCGGAAAGGGTAACTTCAGCGAGTTGTTCAAGTCAATCGAGGACTACGAGAAGAGCCTCGAGGTGAAGCAGTCAGTGGTTGCCCAAAAGTCCTGA
modifications: AsHPPDm-F372G-02 Nucleotide Sequence
notes: vector DBN11774
B2: AsHPPDm-F372G-F383W-02: nucleotide sequence encoding Avena sativa HPPD with F372G+F383W; vector DBN11775 (nucleic acid)
DNA: B1 DNA with T1148G, C1149G
modifications: AsHPPDm-F372G-F383W-02 Nucleotide Sequence
notes: vector DBN11775

Key:
Assay type in all cases: in vivo
[1] = test system: Arabidopsis thaliana T1 plants; assay: Isoxaflutole tolerance of transgenic Arabidopsis thaliana T1 plants (spray, bleached leaf area grade, damage score); conditions: Arabidopsis thaliana T1 plants; for Grade 0 (classification and statistics of the grade of pesticide damage; number of plants) / Grade 1 (classification and statistics of the grade of pesticide damage; number of plants) / Grade 2 (classification and statistics of the grade of pesticide damage; number of plants) / Grade 3 (classification and statistics of the grade of pesticide damage; number of plants): 16 plants;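 on Scores: Weighted damage index from 0 to 100 where higher means more damage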
Summary of the method: (§1)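 Damage was assessed by bleaching grade (0 none; 1 <50%; 2 >50%; 3 100% of leaf area) one week after spraying. Sprays on 18-day-old T1 and wild-type plants used field-rate multiples: topramezone 25–200, isoxaflutole 35–280, mesotrione 52.5–420 g ai/ha.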

[2] = test system: Arabidopsis thaliana T1 plants; assay: Topramezone tolerance of transgenic Arabidopsis thaliana T1 plants (spray, bleached leaf area grade, damage score); conditions: for Resistance evaluation / Scores / Grade 0 (classification and statistics of the grade of pesticide damage; number of plants) / Grade 1 (classification and statistics of the grade of pesticide damage; number of plants) / Grade 2 (classification and statistics of the grade of pesticide damage; number of plants) / Grade 3 (classification and statistics of the grade of pesticide damage; number of plants): Arabidopsis thaliana T1 plants; for Grade 0 (classification and statistics of the grade of pesticide damage; number of plants) / Grade 1 (classification and statistics of the grade of pesticide damage; number of plants) / Grade 2 (classification and statistics of the grade of pesticide damage; number of plants) / Grade 3 (classification and statistics of the grade of pesticide damage; number of plants): 16 plants; for tolerance to topramezone (resistance class): topramezone at four-fold or eight-fold field concentration
Summary of the method: as §1

[3] = test system: Arabidopsis thaliana T1 plants; assay: Mesotrione tolerance of transgenic Arabidopsis thaliana T1 plants (spray, bleached leaf area grade, damage score); design: Scores: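 damage score 0-100 computed as Σ(N×S)/(T×M)×100 over grades 0-3 with higher meaning more damage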; conditions: Table 9; for Classification and statistics of the grade of pesticide damage Grade 0: number of plants at grade 0; for Classification and statistics of the grade of pesticide damage Grade 1: number of plants at grade 1; for Classification and statistics of the grade of pesticide damage Grade 2: number of plants at grade 2; for Classification and statistics of the grade of pesticide damage Grade 3: number of plants at grade 3; for Scores: pesticide damage score
Summary of the method: as §1

[4] = isoxaflutole 140 g ai/ha (2x field concentration)
[5] = isoxaflutole 280 g ai/ha (4x field concentration)
[6] = topramezone 100 g ai/ha (4x field concentration)
[7] = topramezone 200 g ai/ha (8x field concentration)

| Molecule | Resistance evaluation [1, 4] | Scores [1, 4] | Grade 0 (classification and statistics of the grade of pesticide damage; number of plants) [1, 4] | Grade 1 (classification and statistics of the grade of pesticide damage; number of plants) [1, 4] | Grade 2 (classification and statistics of the grade of pesticide damage; number of plants) [1, 4] | Grade 3 (classification and statistics of the grade of pesticide damage; number of plants) [1, 4] | Resistance evaluation [1, 5] | Scores [1, 5] | Grade 0 (classification and statistics of the grade of pesticide damage; number of plants) [1, 5] | Grade 1 (classification and statistics of the grade of pesticide damage; number of plants) [1, 5] | Grade 2 (classification and statistics of the grade of pesticide damage; number of plants) [1, 5] | Grade 3 (classification and statistics of the grade of pesticide damage; number of plants) [1, 5] | Resistance evaluation [2, 6] | Scores [2, 6] | Grade 0 (classification and statistics of the grade of pesticide damage; number of plants) [2, 6] | Grade 1 (classification and statistics of the grade of pesticide damage; number of plants) [2, 6] | Grade 2 (classification and statistics of the grade of pesticide damage; number of plants) [2, 6] | Grade 3 (classification and statistics of the grade of pesticide damage; number of plants) [2, 6] | Resistance evaluation [2, 7] | Scores [2, 7] | further results |
| --- | --- | --- | --- | --- | --- | --- | --- | --- | --- | --- | --- | --- | --- | --- | --- | --- | --- | --- | --- | --- | --- |
| B1 | Moderately | 29 | 6 | 7 | 2 | 1 | Poorly resistant | 67 | 0 | 0 | 16 | 0 | Highly resistant | 0 | 16 | 0 | 0 | 0 | Highly resistant | 0 | Grade 0 (classification and statistics of the grade of pesticide damage; number of plants) [2, 7]: 16; Grade 1 (classification and statistics of the grade of pesticide damage; number of plants) [2, 7]: 0; Grade 2 (classification and statistics of the grade of pesticide damage; number of plants) [2, 7]: 0; Grade 3 (classification and statistics of the grade of pesticide damage; number of plants) [2, 7]: 0; tolerance to topramezone (resistance class) [2]: highly-resistant; Resistance evaluation ([3]; mesotrione 210 g ai/ha (2×)): Moderately; Classification and statistics of the grade of pesticide damage Grade 0 ([3]; mesotrione 210 g ai/ha (2×)): 5; Classification and statistics of the grade of pesticide damage Grade 1 ([3]; mesotrione 210 g ai/ha (2×)): 8; Classification and statistics of the grade of pesticide damage Grade 2 ([3]; mesotrione 210 g ai/ha (2×)): 2; Classification and statistics of the grade of pesticide damage Grade 3 ([3]; mesotrione 210 g ai/ha (2×)): 1; Scores ([3]; mesotrione 210 g ai/ha (2×)): 31; Resistance evaluation ([3]; mesotrione 420 g ai/ha (4×)): Poorly resistant; Classification and statistics of the grade of pesticide damage Grade 0 ([3]; mesotrione 420 g ai/ha (4×)): 0; Classification and statistics of the grade of pesticide damage Grade 1 ([3]; mesotrione 420 g ai/ha (4×)): 8; Classification and statistics of the grade of pesticide damage Grade 2 ([3]; mesotrione 420 g ai/ha (4×)): 8; Classification and statistics of the grade of pesticide damage Grade 3 ([3]; mesotrione 420 g ai/ha (4×)): 0; Scores ([3]; mesotrione 420 g ai/ha (4×)): 50 |
| B2 | Highly resistant | 0 | 16 | 0 | 0 | 0 | Highly resistant | 8 | 12 | 4 | 0 | 0 | Highly resistant | 0 | 16 | 0 | 0 | 0 | Highly resistant | 0 | Grade 0 (classification and statistics of the grade of pesticide damage; number of plants) [2, 7]: 16; Grade 1 (classification and statistics of the grade of pesticide damage; number of plants) [2, 7]: 0; Grade 2 (classification and statistics of the grade of pesticide damage; number of plants) [2, 7]: 0; Grade 3 (classification and statistics of the grade of pesticide damage; number of plants) [2, 7]: 0; tolerance to topramezone (resistance class) [2]: highly-resistant; Resistance evaluation ([3]; mesotrione 210 g ai/ha (2×)): Highly resistant; Classification and statistics of the grade of pesticide damage Grade 0 ([3]; mesotrione 210 g ai/ha (2×)): 16; Classification and statistics of the grade of pesticide damage Grade 1 ([3]; mesotrione 210 g ai/ha (2×)): 0; Classification and statistics of the grade of pesticide damage Grade 2 ([3]; mesotrione 210 g ai/ha (2×)): 0; Classification and statistics of the grade of pesticide damage Grade 3 ([3]; mesotrione 210 g ai/ha (2×)): 0; Scores ([3]; mesotrione 210 g ai/ha (2×)): 0; Resistance evaluation ([3]; mesotrione 420 g ai/ha (4×)): Highly resistant; Classification and statistics of the grade of pesticide damage Grade 0 ([3]; mesotrione 420 g ai/ha (4×)): 13; Classification and statistics of the grade of pesticide damage Grade 1 ([3]; mesotrione 420 g ai/ha (4×)): 3; Classification and statistics of the grade of pesticide damage Grade 2 ([3]; mesotrione 420 g ai/ha (4×)): 0; Classification and statistics of the grade of pesticide damage Grade 3 ([3]; mesotrione 420 g ai/ha (4×)): 0; Scores ([3]; mesotrione 420 g ai/ha (4×)): 6 |
